The values that follow come from publication PMC8298488, “Structure of the molecular bushing of the bacterial flagellar motor” (Nature Communications, 2021).

To fix the notation:
B1: FlgI (natural protein, UniProt P15930 20-365, looked up)
chain: ERIRDLTSVQGVRENSLIGYGLVVGLDGTGDQTTQTPFTTQTLNNMLSQLGITVPTGTNMQLKNVAAVMVTASYPPFARQGQTIDVVVSSMGNAKSLRGGTLLMTPLKGVDSQVYALAQGNILVGGAGASAGGSSVQVNQLNGGRITNGAIIERELPTQFGAGNTINLQLNDEDFTMAQQITDAINRARGYGSATALDARTVQVRVPSGNSSQVRFLADIQNMEVNVTPQDAKVVINSRTGSVVMNREVTLDSCAVAQGNLSVTVNRQLNVNQPNTPFGGGQTVVTPQTQIDLRQSGGSLQSVRSSANLNSVVRALNALGATPMDLMSILQSMQSAGCLRAKLEII
notes: FlgI, the periplasmic protein that forms the P ring, Salmonella enterica serovar Typhimurium; made as a precursor with a cleavable N-terminal signal peptide; 26 subunits form the P ring (C26 symmetry); Domains: FlgI-OR (1-11 and 160-230), FlgI-IRU (12-159), FlgI-IRL (231-346); also called P ring protein; I0; source: endogenous, Salmonella HK1002 cells; in the hook-basal body (HBB) purified by …
B2: FlgH (natural protein, UniProt P0A1N8 22-232, looked up)
chain: CAWIPAKPLVQGATTAQPIPGPVPVANGSIFQSAQPINYGYQPLFEDRRPRNIGDTLTIVLQENVSASKSSSANASRDGKTSFGFDTVPRYLQGLFGNSRADMEASGGNSFNGKGGANASNTFSGTLTVTVDQVLANGNLHVVGEKQIAINQGTEFIRFSGVVNPRTISGSNSVPSTQVADARIEYVGNGYINEAQNMGWLQRFFLNLSPM
notes: FlgH, the lipoprotein that forms the L ring, Salmonella enterica serovar Typhimurium; made as a precursor with a cleavable N-terminal signal peptide; the atomic model holds the whole 211 residues of FlgH; 26 subunits form the L ring (C26 symmetry); also called L ring protein; H0; source: endogenous, Salmonella HK1002 cells; in the hook-basal body (HBB) purified by sucrose density-gradient …

Data set [1] deals with the molecule itself. Put plainly: cryo-EM structure; LP ring part of hook-basal body (HBB) particle images, C26 symmetry applied, 3.5 Å; HBB purified from Salmonella HK1002; final buffer 20 mM Tris-HCl pH 8.0, 150 mM NaCl, 0.05% Triton X-100.
For the data set “FlgI”, the target named is B1. Described as above. The conditions noted are these: both partners purified.

Consider B1, for which, in data set [1], the “stoichiometry N” value is 26.

For the molecule B2, the binding result in the data set with FlgI was “binds”. Further, the “stoichiometry N” value in data set [1] was 26.
